Source: US20230365714A1 (published 2023)

Target: T1, ROR211 shuffle variant (Ig-like domain of ROR2, CRD and kringle domain of ROR1) (human (ROR1/ROR2 chimera), UniProt Q01973 18-937)
T1 construct: Transiently expressed on CHO cells
T1 chain: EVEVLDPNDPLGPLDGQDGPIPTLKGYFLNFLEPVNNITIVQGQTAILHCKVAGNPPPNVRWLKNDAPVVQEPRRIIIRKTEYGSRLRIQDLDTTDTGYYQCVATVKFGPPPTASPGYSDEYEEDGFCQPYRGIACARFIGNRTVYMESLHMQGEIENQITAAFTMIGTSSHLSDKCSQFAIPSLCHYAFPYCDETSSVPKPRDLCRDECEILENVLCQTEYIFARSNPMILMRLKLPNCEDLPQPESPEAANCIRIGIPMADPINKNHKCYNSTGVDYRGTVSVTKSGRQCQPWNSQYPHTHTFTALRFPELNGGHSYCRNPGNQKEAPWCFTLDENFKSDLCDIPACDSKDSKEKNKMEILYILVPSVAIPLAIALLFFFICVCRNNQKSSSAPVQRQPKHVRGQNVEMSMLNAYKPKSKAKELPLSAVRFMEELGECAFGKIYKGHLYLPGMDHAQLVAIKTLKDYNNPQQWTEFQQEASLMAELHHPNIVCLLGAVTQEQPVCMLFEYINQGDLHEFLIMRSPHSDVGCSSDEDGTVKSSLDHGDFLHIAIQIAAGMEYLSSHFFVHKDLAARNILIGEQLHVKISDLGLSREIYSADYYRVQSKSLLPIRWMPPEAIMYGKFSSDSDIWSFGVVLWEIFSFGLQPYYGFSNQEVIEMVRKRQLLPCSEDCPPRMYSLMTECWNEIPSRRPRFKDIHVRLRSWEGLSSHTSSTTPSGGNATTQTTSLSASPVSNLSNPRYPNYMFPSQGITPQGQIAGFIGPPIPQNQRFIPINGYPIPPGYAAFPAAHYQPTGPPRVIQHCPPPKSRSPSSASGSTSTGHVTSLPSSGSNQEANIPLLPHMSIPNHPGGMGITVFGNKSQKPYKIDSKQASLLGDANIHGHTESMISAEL
Test: cell imaging (CellInsight) on CHO cells expressing the shuffle construct
Experimental: Binding was determined […] using a cell imaging screening system (Celllnsight, Thermo Fisher) as per manufacturer's recommendations. In short, CHO cells expressing shuffle constructs ROR112, ROR121, ROR122, ROR211 or ROR221 (3,000 cells/well in 384-well plates) were incubated with antibody or control samples for 18 h at 37° C./5% CO₂, washed and incubated with an Alexa488-labeled detection antibody for 4 h. Hoechst dye was added and fluorescence images were collected, measuring total spot intensity (RFU).

- RFU (total spot intensity): 0 RFU
- binding result: no binding (tested: RFU = 0)
B1: chIgG1-ROR2-A (antibody, V domains shown)
VH: QSVEESGGRLVTPGTPLTLTCTVSGFSLSSYSMSWVRQAPGKGLEWIGVIYVNSKTWYANWAKGRFTISKTSTTVDLKITSPTTEDTATYFCARGDAGYTTNSWLWGPGTLVTVSS
VL: AFELTQTPASVSEPVGGTVTIKCQASESIDNYCSWYQQKPGQPPKLLIYQAFKLASGVPSRFRGSGSGTQFTLTISDLESDDAATYYCQSYSGISTTAFGGGTEVVVK
notes: Rabbit-human chimeric antibody; also called ROR2 specific antibody A
